# Assay results from paper doi:10.1101/2020.10.06.326603 (bioRxiv, 2020).
# Where two headings read alike, the source gives them in different places.
# B1: IscS S10Q, H247P, Q248L variant (enzyme, E. coli)
# chain: MKLPIYLDYQATTPVDPRVAEKMMQFMTMDGTFGNPASRSHRFGWQAEEAVDIARNQIADLVGADPREIVFTSGATESDNLAIKGAANFYQKKGKHIITSKTEHKAVLDTCRQLEREGFEVTYLAPQRNGIIDLKELEAAMRDDTILVSIMHVNNEIGVVQDIAAIGEMCRARGIIYHVDATQSVGKLPIDLSQLKVDLMSFSGHKIYGPKGIGALYVRRKPRVRIEAQMHGGGHERGMRSGTLPVPLIVGMGEAYRIAKEEMATEMERLRGLRNRLWNGIKDIEEVYLNGDLEHGAPNILNVSFNYVEGESLIMALKDLAVSSGSACTSASLEPSYVLRALGLNDELAHSSIRFSLGRFTTEEEIDYTIELVRKSIGRLRDLSPLWEMYKQGVDLNSIEWAHH
# Key:
# [1] = biological target: the molecule itself; experiment: cell-based or functional assay
# [2] = biological target: the molecule itself
# SEC [3] = biological target: the molecule itself; experiment: SEC
# SEC [4] = biological target: the molecule itself; experiment: SEC; remark: listed apart in the source
# [5] = biological target: B1; experiment: native MS
# IscS^QPL-IscU complex = IscS^QPL-IscU complex (E. coli, UniProt P0A6B7 1-404; P0ACD4 1-128, S10Q | H247P | Q248L); experiment: native MS
Binder,cysteine desulfurase activity under standard conditions (kcat) [1],Kd [2],stoichiometry N (SEC [3]),stoichiometry N (SEC [4]),binding result [5],binding result (IscS^QPL-IscU complex)
"IscS S10H, H247P, Q248L variant (enzyme, E. coli) MKLPIYLDYHATTPVDPRVAEKMMQFMTMDGTFGNPASRSHRFGWQAEEAVDIARNQIADLVGADPREIVFTSGATESDNLAIKGAANFYQKKGKHIITSKTEHKAVLDTCRQLEREGFEVTYLAPQRNGIIDLKELEAAMRDDTILVSIMHVNNEIGVVQDIAAIGEMCRARGIIYHVDATQSVGKLPIDLSQLKVDLMSFSGHKIYGPKGIGALYVRRKPRVRIEAQMHGGGHERGMRSGTLPVPLIVGMGEAYRIAKEEMATEMERLRGLRNRLWNGIKDIEEVYLNGDLEHGAPNILNVSFNYVEGESLIMALKDLAVSSGSACTSASLEPSYVLRALGLNDELAHSSIRFSLGRFTTEEEIDYTIELVRKSIGRLRDLSPLWEMYKQGVDLNSIEWAHH",1.5 min⁻¹,8 µM,2,–,–,–
B1,0.22 min⁻¹,32 µM,–,2,–,–
"IscS S10N, H247P, Q248L variant (enzyme, E. coli) MKLPIYLDYNATTPVDPRVAEKMMQFMTMDGTFGNPASRSHRFGWQAEEAVDIARNQIADLVGADPREIVFTSGATESDNLAIKGAANFYQKKGKHIITSKTEHKAVLDTCRQLEREGFEVTYLAPQRNGIIDLKELEAAMRDDTILVSIMHVNNEIGVVQDIAAIGEMCRARGIIYHVDATQSVGKLPIDLSQLKVDLMSFSGHKIYGPKGIGALYVRRKPRVRIEAQMHGGGHERGMRSGTLPVPLIVGMGEAYRIAKEEMATEMERLRGLRNRLWNGIKDIEEVYLNGDLEHGAPNILNVSFNYVEGESLIMALKDLAVSSGSACTSASLEPSYVLRALGLNDELAHSSIRFSLGRFTTEEEIDYTIELVRKSIGRLRDLSPLWEMYKQGVDLNSIEWAHH",8.9 min⁻¹,0.8 µM,2,–,–,–
"CyaY (E. coli homolog of frataxin) (natural protein, UniProt P27838 1-106, looked up) MNDSEFHRLADQLWLTIEERLDDWDGDSDIDCEINGGVLTITFENGSKIIINRQEPLHQVWLATKQGGYHFDLKGDEWICDRSGETFWDLLEQAATQQAGETVSFR",–,–,–,–,binds,binds
